Results taken from publication PMC4690146.

Molecular target: CD36 (human (endogenous in primary monocytes)) (UniProt P16671)
Chain of UniProt P16671 (P16671 whole entry): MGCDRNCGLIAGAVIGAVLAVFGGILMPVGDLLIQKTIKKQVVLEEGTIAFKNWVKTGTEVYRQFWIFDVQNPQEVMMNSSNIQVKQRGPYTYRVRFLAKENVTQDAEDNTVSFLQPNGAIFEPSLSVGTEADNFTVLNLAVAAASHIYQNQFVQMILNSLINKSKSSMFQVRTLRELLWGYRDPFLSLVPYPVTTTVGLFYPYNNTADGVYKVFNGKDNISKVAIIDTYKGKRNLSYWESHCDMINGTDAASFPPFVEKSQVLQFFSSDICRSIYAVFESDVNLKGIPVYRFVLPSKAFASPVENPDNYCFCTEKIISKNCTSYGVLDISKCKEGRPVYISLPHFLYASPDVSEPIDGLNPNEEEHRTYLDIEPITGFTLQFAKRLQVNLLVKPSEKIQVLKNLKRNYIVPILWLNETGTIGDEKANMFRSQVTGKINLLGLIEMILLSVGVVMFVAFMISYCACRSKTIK

CD36 surface expression on Mo (flow cytometry, percentage of CD36 positive cells) after bLF 100 μg/mL for 18 h (% CD36 positive cells): < 30
Substance: bovine lactoferrin (natural protein)
